# ± gives the uncertainty stated by the source.
# B1: POU domain, class 2, transcription factor 3, residues 186 to 260; numbered along this chain, Q9UKI9 (parent)
# chain: SDLEELEKFAKTFKQRRIKLGFTQGDVGLAMGKLYGNDFSQTTISRFEALNLSFKNMCKLKPLLEKWLNDAESSP
# Variants of: B1
# Test: abundance fitness (aPCA) (normalised: wild type 0, dead -1); higher = more abundant; growth selection in yeast, the domain comes from the species named
# Conditions: Homo sapiens
row,Variant,abundance fitness
1,SDLEELEKFAKTFKQRRIKLGFTQGDVGLAMGKLYGNDFSQTTISRFEALNLSFKNMCKLCPLLEKWLNDAESSP [K61C],-0.194 ± 0.083
2,SDLEELEKFAKTFKQRRIKLGFTQGDVGLAMGKLYGNDFSQTTISRFEALNLSFKNMCKLIPLLEKWLNDAESSP [K61I],-0.128 ± 0.063
3,SDLEELEKFAKTFKQRRIKLGFTQGDVGLAMGKLYGNDFSQTTISRFEALNLSFKNMCKLMPLLEKWLNDAESSP [K61M],-0.133 ± 0.045
4,SDLEELEKFAKTFKQRRIKLGFTQGDVGLAMGKLYGNDFSQTTISRFEALNLSFKNMCKLAPLLEKWLNDAESSP [K61A],-0.05 ± 0.039
5,SDLEELEKFAKTFKQRRIKLGFTQGDVGLAMGKLYGNDFSQTTISRFEALNLSFKNMCKLVPLLEKWLNDAESSP [K61V],-0.065 ± 0.036
6,SDLEELEKFAKTFKQRRIKLGFTQGDVGLAMGKLYGNDFSQTTISRFEALNLSFKNMCKLPPLLEKWLNDAESSP [K61P],-0.829 ± 0.15
7,SDLEELEKFAKTFKQRRIKLGFTQGDVGLAMGKLYGNDFSQTTISRFEALNLSFKNMCKLEPLLEKWLNDAESSP [K61E],-0.273 ± 0.051
8,SDLEELEKFAKTFKQRRIKLGFTQGDVGLAMGKLYGNDFSQTTISRFEALNLSFKNMCKLGPLLEKWLNDAESSP [K61G],-0.241 ± 0.032
9,SDLEELEKFAKTFKQRRIKLGFTQGDVGLAMGKLYGNDFSQTTISRFEALNLSFKNMCKLYPLLEKWLNDAESSP [K61Y],-0.108 ± 0.08
10,SDLEELEKFAKTFKQRRIKLGFTQGDVGLAMGKLYGNDFSQTTISRFEALNLSFKNMCKLHPLLEKWLNDAESSP [K61H],-0.183 ± 0.094
11,SDLEELEKFAKTFKQRRIKLGFTQGDVGLAMGKLYGNDFSQTTISRFEALNLSFKNMCKLRPLLEKWLNDAESSP [K61R],-0.02 ± 0.032
12,SDLEELEKFAKTFKQRRIKLGFTQGDVGLAMGKLYGNDFSQTTISRFEALNLSFKNMCKLSPLLEKWLNDAESSP [K61S],-0.153 ± 0.041
13,SDLEELEKFAKTFKQRRIKLGFTQGDVGLAMGKLYGNDFSQTTISRFEALNLSFKNMCKLNPLLEKWLNDAESSP [K61N],-0.628 ± 0.14
14,SDLEELEKFAKTFKQRRIKLGFTQGDVGLAMGKLYGNDFSQTTISRFEALNLSFKNMCKLTPLLEKWLNDAESSP [K61T],-0.254 ± 0.05
15,SDLEELEKFAKTFKQRRIKLGFTQGDVGLAMGKLYGNDFSQTTISRFEALNLSFKNMCKLWPLLEKWLNDAESSP [K61W],-0.181 ± 0.041
16,SDLEELEKFAKTFKQRRIKLGFTQGDVGLAMGKLYGNDFSQTTISRFEALNLSFKNMCKLLPLLEKWLNDAESSP [K61L],-0.198 ± 0.041
17,SDLEELEKFAKTFKQRRIKLGFTQGDVGLAMGKLYGNDFSQTTISRFEALNLSFKNMCKLFPLLEKWLNDAESSP [K61F],-0.324 ± 0.092
18,SDLEELEKFAKTFKQRRIKLGFTQGDVGLAMGKLYGNDFSQTTISRFEALNLSFKNMCKLDPLLEKWLNDAESSP [K61D],-0.898 ± 0.2

row,Variant,abundance fitness
1,SDLEELEKFAKTFKQRRIKLGFTQGDVGLAMGKLYGNDFSQTTISRFEALNLSFKNMCKLQPLLEKWLNDAESSP [K61Q],-0.017 ± 0.041
2,SDLEELEKFAKTFKQRRIKLGFTQGDVGLAMGKLYGNDFSQTTISRFEALNLSFKNMCKWKPLLEKWLNDAESSP [L60W],-0.074 ± 0.032
3,SDLEELEKFAKTFKQRRIKLGFTQGDVGLAMGKLYGNDFSQTTISRFEALNLSFKNMCKKKPLLEKWLNDAESSP [L60K],-0.106 ± 0.058
4,SDLEELEKFAKTFKQRRIKLGFTQGDVGLAMGKLYGNDFSQTTISRFEALNLSFKNMCKHKPLLEKWLNDAESSP [L60H],-0.285 ± 0.14
5,SDLEELEKFAKTFKQRRIKLGFTQGDVGLAMGKLYGNDFSQTTISRFEALNLSFKNMCKMKPLLEKWLNDAESSP [L60M],-0.062 ± 0.055
6,SDLEELEKFAKTFKQRRIKLGFTQGDVGLAMGKLYGNDFSQTTISRFEALNLSFKNMCKRKPLLEKWLNDAESSP [L60R],-0.519 ± 0.04
7,SDLEELEKFAKTFKQRRIKLGFTQGDVGLAMGKLYGNDFSQTTISRFEALNLSFKNMCKDKPLLEKWLNDAESSP [L60D],-0.601 ± 0.11
8,SDLEELEKFAKTFKQRRIKLGFTQGDVGLAMGKLYGNDFSQTTISRFEALNLSFKNMCKPKPLLEKWLNDAESSP [L60P],-0.855 ± 0.14
9,SDLEELEKFAKTFKQRRIKLGFTQGDVGLAMGKLYGNDFSQTTISRFEALNLSFKNMCKEKPLLEKWLNDAESSP [L60E],-0.847 ± 0.095
10,SDLEELEKFAKTFKQRRIKLGFTQGDVGLAMGKLYGNDFSQTTISRFEALNLSFKNMCKFKPLLEKWLNDAESSP [L60F],-0.079 ± 0.066
11,SDLEELEKFAKTFKQRRIKLGFTQGDVGLAMGKLYGNDFSQTTISRFEALNLSFKNMCKIKPLLEKWLNDAESSP [L60I],-0.067 ± 0.059
12,SDLEELEKFAKTFKQRRIKLGFTQGDVGLAMGKLYGNDFSQTTISRFEALNLSFKNMCKVKPLLEKWLNDAESSP [L60V],-0.02 ± 0.032
13,SDLEELEKFAKTFKQRRIKLGFTQGDVGLAMGKLYGNDFSQTTISRFEALNLSFKNMCKAKPLLEKWLNDAESSP [L60A],-0.081 ± 0.035
14,SDLEELEKFAKTFKQRRIKLGFTQGDVGLAMGKLYGNDFSQTTISRFEALNLSFKNMCKTKPLLEKWLNDAESSP [L60T],-0.039 ± 0.04
15,SDLEELEKFAKTFKQRRIKLGFTQGDVGLAMGKLYGNDFSQTTISRFEALNLSFKNMCKQKPLLEKWLNDAESSP [L60Q],-0.242 ± 0.057
16,SDLEELEKFAKTFKQRRIKLGFTQGDVGLAMGKLYGNDFSQTTISRFEALNLSFKNMCKYKPLLEKWLNDAESSP [L60Y],-0.117 ± 0.052
17,SDLEELEKFAKTFKQRRIKLGFTQGDVGLAMGKLYGNDFSQTTISRFEALNLSFKNMCKGKPLLEKWLNDAESSP [L60G],-0.79 ± 0.055
18,SDLEELEKFAKTFKQRRIKLGFTQGDVGLAMGKLYGNDFSQTTISRFEALNLSFKNMCKNKPLLEKWLNDAESSP [L60N],-0.395 ± 0.068

# Source: the Human Domainome abundance scans (Beltran et al. 2025)
